Three proteins from patent US20250257148A1 (CROSSLINK THERAPEUTICS, published 2025) can be followed below.

Data set [1] concerns the molecule itself. As to the kind of experiment: size exclusion chromatography, 1 mM ATP against 1 mM ADP; homodimerization. As to the method: (§1) To evaluate the behavior of the constructs in the presence of ATP and ADP samples of the purified protein (1 mg each) were buffer-exchanged on PD-10 columns (Cytiva 17085101) according to manufacturer instructions. For the buffer exchange PD-10 desalting columns were equilibrated with target buffer (20 mM Tris-Cl pH 8.0, 50 mM NaCl, 5 mM MgCl₂, 10% glycerol) containing either 1 mM ATP or 1 mM ADP. One milligram (100 μl of 10 mg/ml stock) of protein was added to each column along with 2.4 ml of target buffer, the column was centrifuged at 1000×g for 2 minutes in a 50-ml conical tube, and the eluate was collected. Buffer-exchanged proteins were then concentrated to 0.5 ml (˜60 μM) and loaded onto a Superdex S200 Increase column (Cytiva) equilibrated in the appropriate buffer containing ATP or ADP and eluted at 0.5 ml/min.
(In general: Size exclusion chromatography separates by hydrodynamic size, large species first.)

Data set [2] concerns the molecule itself. The data set can be described thus: size exclusion chromatography, 1 mM ATP against 1 mM ADP; ATP mediated shift read as homodimerization. As to the method:
as §1

B1: Construct 157: Hisx8-anti-BCMA VHH-(G4S)2-CH1-CH2-TAP1 NBD (Cys-less; modified D-helix; D668N)-(G4S)2-anti-CD3 VHH (other)
chain: MHHHHHHHHEVQLVESGGGLVQAGGSLRLSCAASGRTFTMGWFRQAPGKEREFVAAISLSPTLAYYAESVKGRFTISRDNAKNTVVLQMNSLKPEDTALYYCAADRKSVMSIRPDYWGQGTQVTVSSGGGGSGGGGSETEFFQQNQTGGGGSGLQTVRSFGGGGGSGGSGLLTPLHLEGLVQFQDVSFAYPNRPDVLVLQGLTFTLRPGEVTALVGPNGSGKSTVAALLQNLYQPTGGQLLLDGKPLPQYEHRYLHRQVAAVGQEPQVFGRSLQENIAYGLTQKPTMEEITAAAVKSGAHSFISGLPQGYDTEVDEAGSQLSGGQRQAVALARALIRKPSVLILDNATSALDAGNQLRVQRLLYESPERYSRSVLLITQHLSLVEQADHILFLEGGAIREGGTHQQLMEKKGSYWAMVQAPADAPEGGGGSGGGGSGGGGSQVQLVESGGGLVQPGGSLRLSCAASGSIFSANTMGWYRQAPGKQRELVAGMNTSGSTVYGDSVKGRFTISRDNAKNIAYLQMNSLIPEDTAVYYCTLVQRGPNYWGQGTQVTVSS
notes: Single polypeptide expressed in E. coli
As for B1, the binding result in data set [1] is “binds”.

B2: Construct 159: CH1-CH2-TAP1 NBD (Cys-less; modified D-helix; D668N)-(G4S)2-anti-CD3 VHH-(G4S)2-anti-BCMA VHH-Hisx8 (other)
chain: METEFFQQNQTGGGGSGLQTVRSFGGGGGSGGSGLLTPLHLEGLVQFQDVSFAYPNRPDVLVLQGLTFTLRPGEVTALVGPNGSGKSTVAALLQNLYQPTGGQLLLDGKPLPQYEHRYLHRQVAAVGQEPQVFGRSLQENIAYGLTQKPTMEEITAAAVKSGAHSFISGLPQGYDTEVDEAGSQLSGGQRQAVALARALIRKPSVLILDNATSALDAGNQLRVQRLLYESPERYSRSVLLITQHLSLVEQADHILFLEGGAIREGGTHQQLMEKKGSYWAMVQAPADAPEGGGGSGGGGSGGGGSQVQLVESGGGLVQPGGSLRLSCAASGSIFSANTMGWYRQAPGKQRELVAGMNTSGSTVYGDSVKGRFTISRDNAKNIAYLQMNSLIPEDTAVYYCTLVQRGPNYWGQGTQVTVSSGGGGSGGGGSEVQLVESGGGLVQAGGSLRLSCAASGRTFTMGWFRQAPGKEREFVAAISLSPTLAYYAESVKGRFTISRDNAKNTVVLQMNSLKPEDTALYYCAADRKSVMSIRPDYWGQGTQVTVSSHHHHHHHH
notes: as for B1
For the protein B2, in data set [2], the binding result is reported as “binds”.

B3: Construct 156: Hisx8-anti-BCMA VHH-(G4S)2-anti-CD3 VHH-(G4S)2-CH1-CH2-TAP1 NBD (Cys-less; modified D-helix; D668N) (other)
chain: MHHHHHHHHEVQLVESGGGLVQAGGSLRLSCAASGRTFTMGWFRQAPGKEREFVAAISLSPTLAYYAESVKGRFTISRDNAKNTVVLQMNSLKPEDTALYYCAADRKSVMSIRPDYWGQGTQVTVSSGGGGSGGGGSQVQLVESGGGLVQPGGSLRLSCAASGSIFSANTMGWYRQAPGKQRELVAGMNTSGSTVYGDSVKGRFTISRDNAKNIAYLQMNSLIPEDTAVYYCTLVQRGPNYWGQGTQVTVSSGGGGSGGGGSETEFFQQNQTGGGGSGLQTVRSFGGGGGSGGSGLLTPLHLEGLVQFQDVSFAYPNRPDVLVLQGLTFTLRPGEVTALVGPNGSGKSTVAALLQNLYQPTGGQLLLDGKPLPQYEHRYLHRQVAAVGQEPQVFGRSLQENIAYGLTQKPTMEEITAAAVKSGAHSFISGLPQGYDTEVDEAGSQLSGGQRQAVALARALIRKPSVLILDNATSALDAGNQLRVQRLLYESPERYSRSVLLITQHLSLVEQADHILFLEGGAIREGGTHQQLMEKKGSYWAMVQAPADAPEGGGGS
notes: Single polypeptide expressed in E. coli; Here CH1-CH2 means Coupling Helix 1 and Coupling Helix 2 (the CAP)
With B3, in data set [2], the binding result was “binds”.
